Laboratory results reported in patent US20230002480A1.

How the values were obtained:
Assay in all cases: cell-based or functional assay
[1] = target: HIV-1 Env of pseudovirus 3301.v1.c24 (HIV-1)
[2] = target: HIV-1 Env of pseudovirus Q461.e2 (HIV-1)
[3] = target: HIV-1 Env of pseudovirus 0260.v5.c36 (HIV-1)
[4] = target: HIV-1 Env of pseudovirus 89-F1_2_25 (HIV-1)
[5] = target: HIV-1 Env of pseudovirus CNE20 (HIV-1)
[6] = target: HIV-1 Env of pseudovirus TRO.11 (HIV-1)
[7] = target: HIV-1 Env of pseudovirus 6244_13_B5_4576 (HIV-1)
[8] = target: HIV-1 Env of pseudovirus BJOX025000.01.1 (HIV-1)
[9] = target: HIV-1 Env of pseudovirus HIV-16845-2.22 (HIV-1)
[10] = target: HIV-1 Env of pseudovirus 6535.3 (HIV-1)
[11] = target: HIV-1 Env of pseudovirus 62357_14_D3_4589 (HIV-1)
[12] = target: HIV-1 Env of pseudovirus CNE58 (HIV-1)
[13] = target: HIV-1 Env of pseudovirus Du172.17 (HIV-1)
[14] = target: HIV-1 Env of pseudovirus CNE53 (HIV-1)
[15] = target: HIV-1 Env of pseudovirus CAP210.2.00.E8 (HIV-1)
[16] = target: HIV-1 Env of pseudovirus 6480.v4.c25 (HIV-1)
[17] = target: HIV-1 Env of pseudovirus ZM247v1(Rev-) (HIV-1)
[18] = target: HIV-1 Env of pseudovirus T255-34 (HIV-1)
[19] = target: HIV-1 Env of pseudovirus CAP45.2.00.G3 (HIV-1)
[20] = target: HIV-1 Env of pseudovirus WEAU_d15_410_787 (HIV-1)
[21] = target: HIV-1 Env of pseudovirus AC10.0.29 (HIV-1)
[22] = target: HIV-1 Env of pseudovirus CNE30 (HIV-1)
[23] = target: HIV-1 Env of pseudovirus BF1266.431a (HIV-1)
[24] = target: HIV-1 Env of pseudovirus CNE19 (HIV-1)
[25] = target: HIV-1 Env of pseudovirus 6041.v3.c23 (HIV-1)
[26] = target: HIV-1 Env of pseudovirus 6540.v4.c1 (HIV-1)
[27] = target: HIV-1 Env of pseudovirus CNE8 (HIV-1)
[28] = target: HIV-1 Env of pseudovirus C4118.c09 (HIV-1)
[29] = target: HIV-1 Env of pseudovirus BJOX015000.11.5 (HIV-1)
[30] = target: HIV-1 Env of pseudovirus 249M B10 (HIV-1)
[31] = target: HIV-1 Env of pseudovirus Q842.d12 (HIV-1)
[32] = target: HIV-1 Env of pseudovirus ZM135M.PL10a (HIV-1)
[33] = target: HIV-1 Env of pseudovirus 1054_07_TC4_1499 (HIV-1)
[34] = target: HIV-1 Env of pseudovirus P0402_c2_11 (HIV-1)
[35] = target: HIV-1 Env of pseudovirus CNE52 (HIV-1)
[36] = target: HIV-1 Env of pseudovirus Ce1086_B2 (HIV-1)
[37] = target: HIV-1 Env of pseudovirus CNE17 (HIV-1)

Substance: VRC07 (antibody)
- IC50, titer in TZM.bl cells [1]: 0.027 µg/mL
- IC80, titer in TZM.bl cells [1]: 0.073 µg/mL
- neutralization IC50 [2]: 0.282 µg/mL
- neutralization IC80 [2]: 1.02 µg/mL
- neutralization IC50 [3]: 0.448 µg/mL
- neutralization IC80 [3]: 1.62 µg/mL
- IC50, titer in TZM.bl cells [4]: > 50 µg/mL
- IC80, titer in TZM.bl cells [4]: > 50 µg/mL
- neutralization IC50 [5]: 0.06 µg/mL
- neutralization IC80 [5]: 0.129 µg/mL
- neutralization IC50 [6]: 0.132 µg/mL
- neutralization IC80 [6]: 0.456 µg/mL
- neutralization IC50 [7]: 0.065 µg/mL
- neutralization IC80 [7]: 0.23 µg/mL
- IC50, titer in TZM.bl cells [8]: 0.279 µg/mL
- IC80, titer in TZM.bl cells [8]: 2.29 µg/mL
- neutralization IC50 [9]: 1.21 µg/mL
- neutralization IC80 [9]: 6.15 µg/mL
- neutralization IC50 [10]: 0.169 µg/mL
- neutralization IC80 [10]: 0.517 µg/mL
- neutralization IC50 [11]: 0.075 µg/mL
- neutralization IC80 [11]: 0.256 µg/mL
- neutralization IC50 [12]: 0.11 µg/mL
- neutralization IC80 [12]: 0.298 µg/mL
- neutralization IC50 [13]: 0.796 µg/mL
- neutralization IC80 [13]: 3.66 µg/mL
- neutralization IC50 [14]: 0.031 µg/mL
- neutralization IC80 [14]: 0.086 µg/mL
- neutralization IC50 [15]: > 50 µg/mL
- neutralization IC80 [15]: > 50 µg/mL
- IC50, titer in TZM.bl cells [16]: 0.032 µg/mL
- IC80, titer in TZM.bl cells [16]: 0.134 µg/mL
- neutralization IC50 [17]: 0.041 µg/mL
- neutralization IC80 [17]: 0.189 µg/mL
- IC50, titer in TZM.bl cells [18]: 0.227 µg/mL
- IC80, titer in TZM.bl cells [18]: 0.987 µg/mL
- neutralization IC50 [19]: 0.355 µg/mL
- neutralization IC80 [19]: 3.09 µg/mL
- neutralization IC50 [20]: 0.034 µg/mL
- neutralization IC80 [20]: 0.115 µg/mL
- neutralization IC50 [21]: 0.282 µg/mL
- neutralization IC80 [21]: 0.986 µg/mL
- neutralization IC50 [22]: 0.326 µg/mL
- neutralization IC80 [22]: 1.08 µg/mL
- neutralization IC50 [23]: 0.032 µg/mL
- neutralization IC80 [23]: 0.117 µg/mL
- neutralization IC50 [24]: 0.092 µg/mL
- neutralization IC80 [24]: 0.232 µg/mL
- IC50, titer in TZM.bl cells [25]: 0.018 µg/mL
- IC80, titer in TZM.bl cells [25]: 0.058 µg/mL
- IC50, titer in TZM.bl cells [26]: > 50 µg/mL
- IC80, titer in TZM.bl cells [26]: > 50 µg/mL
- IC50, titer in TZM.bl cells [27]: 0.45 µg/mL
- IC80, titer in TZM.bl cells [27]: 1.56 µg/mL
- IC50, titer in TZM.bl cells [28]: 0.121 µg/mL
- IC80, titer in TZM.bl cells [28]: 0.444 µg/mL
- IC50, titer in TZM.bl cells [29]: 0.054 µg/mL
- IC80, titer in TZM.bl cells [29]: 0.479 µg/mL
- neutralization IC50 [30]: 0.052 µg/mL
- neutralization IC80 [30]: 0.204 µg/mL
- neutralization IC50 [31]: 0.015 µg/mL
- neutralization IC80 [31]: 0.051 µg/mL
- neutralization IC50 [32]: 0.104 µg/mL
- neutralization IC80 [32]: 0.383 µg/mL
- neutralization IC50 [33]: 0.239 µg/mL
- neutralization IC80 [33]: 1.46 µg/mL
- IC50, titer in TZM.bl cells [34]: 0.085 µg/mL
- IC80, titer in TZM.bl cells [34]: 0.422 µg/mL
- neutralization IC50 [35]: 0.042 µg/mL
- neutralization IC80 [35]: 0.142 µg/mL
- neutralization IC50 [36]: 0.128 µg/mL
- neutralization IC80 [36]: 0.84 µg/mL
- neutralization IC50 [37]: 0.136 µg/mL
- neutralization IC80 [37]: 0.651 µg/mL

Substance: PGT128 (antibody)
- IC50, titer in TZM.bl cells [1]: 0.067 µg/mL
- IC80, titer in TZM.bl cells [1]: 0.499 µg/mL
- IC50 [2]: > 50 µg/mL
- IC80 [2]: > 50 µg/mL
- IC50 [3]: 0.058 µg/mL
- IC80 [3]: 0.162 µg/mL
- IC50, titer in TZM.bl cells [4]: > 50 µg/mL
- IC80, titer in TZM.bl cells [4]: > 50 µg/mL
- IC50 [5]: 0.001 µg/mL
- IC80 [5]: 0.004 µg/mL
- IC50 [6]: 0.019 µg/mL
- IC80 [6]: 0.045 µg/mL
- IC50 [7]: 0.02 µg/mL
- IC80 [7]: 0.076 µg/mL
- IC50, titer in TZM.bl cells [8]: > 50 µg/mL
- IC80, titer in TZM.bl cells [8]: > 50 µg/mL
- IC50 [9]: 0.181 µg/mL
- IC80 [9]: 0.834 µg/mL
- IC50 [10]: 0.004 µg/mL
- IC80 [10]: 0.016 µg/mL
- IC50 [11]: 1.14 µg/mL
- IC80 [11]: > 50 µg/mL
- IC50 [12]: 13.8 µg/mL
- IC80 [12]: > 50 µg/mL
- IC50 [13]: 0.028 µg/mL
- IC80 [13]: 0.08 µg/mL
- IC50 [14]: 0.01 µg/mL
- IC80 [14]: 0.049 µg/mL
- IC50 [15]: > 50 µg/mL
- IC80 [15]: > 50 µg/mL
- IC50, titer in TZM.bl cells [16]: 0.003 µg/mL
- IC80, titer in TZM.bl cells [16]: 0.019 µg/mL
- IC50 [17]: 0.021 µg/mL
- IC80 [17]: 0.081 µg/mL
- IC50, titer in TZM.bl cells [18]: > 50 µg/mL
- IC80, titer in TZM.bl cells [18]: > 50 µg/mL
- IC50 [19]: > 50 µg/mL
- IC80 [19]: > 50 µg/mL
- IC50 [20]: 0.032 µg/mL
- IC80 [20]: 0.153 µg/mL
- IC50 [21]: 0.008 µg/mL
- IC80 [21]: 0.018 µg/mL
- IC50 [22]: 2.06 µg/mL
- IC80 [22]: 12.6 µg/mL
- IC50 [23]: > 50 µg/mL
- IC80 [23]: > 50 µg/mL
- IC50 [24]: > 50 µg/mL
- IC80 [24]: > 50 µg/mL
- IC50, titer in TZM.bl cells [25]: > 50 µg/mL
- IC80, titer in TZM.bl cells [25]: > 50 µg/mL
- IC50, titer in TZM.bl cells [26]: 11.8 µg/mL
- IC80, titer in TZM.bl cells [26]: > 50 µg/mL
- IC50, titer in TZM.bl cells [27]: 0.019 µg/mL
- IC80, titer in TZM.bl cells [27]: 0.052 µg/mL
- IC50, titer in TZM.bl cells [28]: > 50 µg/mL
- IC80, titer in TZM.bl cells [28]: > 50 µg/mL
- IC50, titer in TZM.bl cells [29]: 0.001 µg/mL
- IC80, titer in TZM.bl cells [29]: 0.011 µg/mL
- IC50 [30]: 7.87 µg/mL
- IC80 [30]: > 50 µg/mL
- IC50 [31]: 0.008 µg/mL
- IC80 [31]: 0.102 µg/mL
- IC50 [32]: > 50 µg/mL
- IC80 [32]: > 50 µg/mL
- IC50 [33]: 0.035 µg/mL
- IC80 [33]: 0.312 µg/mL
- IC50, titer in TZM.bl cells [34]: 0.007 µg/mL
- IC80, titer in TZM.bl cells [34]: 0.02 µg/mL
- IC50 [35]: > 50 µg/mL
- IC80 [35]: > 50 µg/mL
- IC50 [36]: > 50 µg/mL
- IC80 [36]: > 50 µg/mL
- IC50 [37]: 0.432 µg/mL
- IC80 [37]: 1.99 µg/mL
